Data on six molecules can be found in US20210371480.

Data set [1] deals with C3b (Complement Technology cat. A114), purified human C3b (UniProt P01024).
Data set [2] addresses C3b (Complement Technology cat. A114), purified human C3b, P01024.

Where a chain is given by its changes, count along the chain named.

Sequence of C3b (Complement Technology cat. A114), purified human C3b, P01024 (P01024 whole entry, looked up): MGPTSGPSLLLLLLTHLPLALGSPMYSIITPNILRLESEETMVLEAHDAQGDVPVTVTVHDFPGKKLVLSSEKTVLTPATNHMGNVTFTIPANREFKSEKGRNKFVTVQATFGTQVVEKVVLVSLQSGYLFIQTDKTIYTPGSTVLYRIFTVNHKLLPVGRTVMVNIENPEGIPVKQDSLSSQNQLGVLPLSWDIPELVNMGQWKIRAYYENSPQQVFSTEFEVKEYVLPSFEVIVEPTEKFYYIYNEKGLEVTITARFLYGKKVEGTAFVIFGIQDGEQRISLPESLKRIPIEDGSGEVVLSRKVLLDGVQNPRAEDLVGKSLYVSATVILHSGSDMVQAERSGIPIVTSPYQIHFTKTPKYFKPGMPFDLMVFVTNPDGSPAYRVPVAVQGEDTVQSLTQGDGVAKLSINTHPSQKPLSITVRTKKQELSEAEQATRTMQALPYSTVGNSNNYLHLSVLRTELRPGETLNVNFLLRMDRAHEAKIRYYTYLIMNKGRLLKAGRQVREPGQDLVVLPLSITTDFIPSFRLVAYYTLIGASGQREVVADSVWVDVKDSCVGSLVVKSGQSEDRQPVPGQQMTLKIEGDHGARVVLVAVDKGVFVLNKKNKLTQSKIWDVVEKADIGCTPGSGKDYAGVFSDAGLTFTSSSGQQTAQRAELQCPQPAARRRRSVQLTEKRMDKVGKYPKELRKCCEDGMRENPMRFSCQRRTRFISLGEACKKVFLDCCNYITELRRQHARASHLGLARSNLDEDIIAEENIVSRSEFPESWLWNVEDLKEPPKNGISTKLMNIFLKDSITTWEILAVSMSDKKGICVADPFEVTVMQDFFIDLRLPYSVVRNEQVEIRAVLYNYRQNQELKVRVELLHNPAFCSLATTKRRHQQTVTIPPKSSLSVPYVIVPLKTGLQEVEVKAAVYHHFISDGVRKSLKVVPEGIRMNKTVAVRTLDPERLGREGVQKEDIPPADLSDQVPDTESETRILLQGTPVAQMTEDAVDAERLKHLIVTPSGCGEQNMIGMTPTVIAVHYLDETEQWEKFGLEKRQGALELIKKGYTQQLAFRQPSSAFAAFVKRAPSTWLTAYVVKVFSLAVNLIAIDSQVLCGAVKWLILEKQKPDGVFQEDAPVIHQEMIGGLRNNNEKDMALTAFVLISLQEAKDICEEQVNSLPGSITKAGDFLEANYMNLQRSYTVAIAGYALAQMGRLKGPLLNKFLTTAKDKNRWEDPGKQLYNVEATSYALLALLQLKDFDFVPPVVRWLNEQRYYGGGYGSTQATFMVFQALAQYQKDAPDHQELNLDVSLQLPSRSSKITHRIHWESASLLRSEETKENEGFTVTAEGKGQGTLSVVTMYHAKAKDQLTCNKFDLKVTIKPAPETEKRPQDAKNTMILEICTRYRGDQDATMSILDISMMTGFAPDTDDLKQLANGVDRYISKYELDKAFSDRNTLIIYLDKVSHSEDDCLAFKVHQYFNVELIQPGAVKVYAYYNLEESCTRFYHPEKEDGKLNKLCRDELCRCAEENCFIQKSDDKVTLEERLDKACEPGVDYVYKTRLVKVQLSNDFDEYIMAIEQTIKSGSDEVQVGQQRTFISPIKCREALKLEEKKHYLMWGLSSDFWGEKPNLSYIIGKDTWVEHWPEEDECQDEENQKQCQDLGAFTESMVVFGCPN

On to “A240G CFI protein (Complement Factor I mutant variant)”, for which, in data set [1], the “fluorescence cofactor assay: change in RFUs of ANS-labeled C3b over time, with cofactor CFH, MCP or CR1” value is “certain CFI mutations (G119R, A240G, and P553S) were associated with greatly reduced CFI protein function”.
Still for that read-out and setting: then “A300T CFI protein (Complement Factor I mutant variant)”, with “the A300T mutation appeared to have relatively little impact on CFI function”.
Same read-out and setting: then “G119R CFI protein (Complement Factor I mutant variant)”, with “certain CFI mutations (G119R, A240G, and P553S) were associated with greatly reduced CFI protein function”; and “P553S CFI protein (Complement Factor I mutant variant)”, with “certain CFI mutations (G119R, A240G, and P553S) were associated with greatly reduced CFI protein function”.

B1: purified CFI (Comptech cat. A138) (protein)
chain: KVTYTSQEDLVEKKCLAKKYTHLSCDKVFCQPWQRCIEGTCVCKLPYQCPKNGTAVCATNRRSFPTYCQQKSLECLHPGTKFLNNGTCTAEGKFSVSLKHGNTDSEGIVEVKLVDQDKTMFICKSSWSMREANVACLDLGFQQGADTQRRFKLSDLSINSTECLHVHCRGLETSLAECTFTKRRTMGYQDFADVVCYTQKADSPMDDFFQCVNGKYISQMKACDGINDCGDQSDELCCKACQGKGFHCKSGVCIPSQYQCNGEVDCITGEDEVGCAGFASVTQEETEILTADMDAERRRIKSLLPKLSCGVKNRMHIRRKRIVGGKRAQLGDLPWQVAIKDASGITCGGIYIGGCWILTAAHCLRASKTHRYQIWTTVVDWIHPDLKRIVIEYVDRIIFHENYNAGTYQNDIALIEMKKDGNKKDCELPRSIPACVPWSPYLFQPNDTCIVSGWGREKDNERVFSLQWGEVKLISNCSKFYGNRFYEKEMECAGTYDGSIDACKGDSGGPLVCMDANNVTYVWGVVSWGENCGKPEFPGVYTKVANYFDWISYHVGRPFISQYNV
On to B1, for which the “slope of the co-factor assay (fluorescence of C3b/ANS with CFH, kinetic mode)” value in data set [2] is on record as “the slope of the CFI control sample is -0.75±0.02”.

B2: CFI expressed in eyes of cynomolgus monkeys from AAV2-GP2031 (vector SEQ ID NO: 33) (protein)
chain: B1 chain with T282A
Regarding B2, the “fluorescence cofactor assay with CFH: reduction in fluorescence at 472 nm of C3b/ANS mixed with vitreous humor” value in data set [2] is reported as “CFI expressed in eyes of cynomolgus monkeys was capable of cleaving C3b in a dose-dependent manner”.
